Measured values taken from patent US20060275803A1, “Rat and mouse members of the CRISP family of genes” (Wyeth, priority 2005, published 2006).

Target: T1, rCRISPA (rCRISP1) (Rattus norvegicus, UniProt P12020)
T1 construct: Native rCRISPA (rCRISP1) protein, purified with DANA present; from tissue; host or cells: rat epididymis
T1 sequence (P12020 20-246): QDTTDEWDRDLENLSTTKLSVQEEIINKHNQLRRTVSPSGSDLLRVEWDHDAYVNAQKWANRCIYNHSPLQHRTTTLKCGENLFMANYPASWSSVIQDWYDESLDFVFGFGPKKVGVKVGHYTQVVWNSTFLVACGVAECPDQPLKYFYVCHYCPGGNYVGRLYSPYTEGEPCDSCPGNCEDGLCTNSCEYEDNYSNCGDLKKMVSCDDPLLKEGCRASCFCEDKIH
Assay: Protease activity screen: cleavage of substrate peptides by native rCRISPA (+DANA protocol), measured by fluorescence
Format: biochemical
Details: 5 μM substrate peptide, 1 μg enzyme, 100 mM NaCl, 25 mM Tris-Cl, pH 7.5; fluorescence at ten minute intervals for 130 minutes; FIG. 13
Protocol: FIG. 13 is a graph showing rCRISPA (rCRISP1) protease activity (assay conditions: 5 μM substrate peptide, 1 μg enzyme, 100 mM NaCl, 25 mM Tris-Cl, pH 7.5). A. Cleaved peptides A04 (RGARARLG), N08 (RKRRAPLA), N12 (AKRAASQI), N17 (RKRRAVLT), B22 (APQRFGKK), B17 (RQRYGKRS), B23 (RVKRYRQS), H03 (RNKRAVQG). B. Cleaved peptides B20 (PQRFGRNT), C16 (RVLGLKAH), J21 (LRNRAQSG), H07 (RVKRQVRS), H11 (RRLLRAIP), N05 (RARRELAP), H01 (RKKRSTKK), O22 (GGVRGPRV), O16 (AATRRQAV), O23 (KNVAMQKG), G24 (RRKRSTRE), A09 (RMRRYADA), M02 (EKQRIIGG), H17 (NGLRADPM). C. Uncleaved peptides L16 (KTPRWGG), N10 (FYRADQPR), B11 (AAGVAPLS), J03 (PQLHSTGG), C01 (GPQGLLGA), K11 (VIPRSGGS), M07 (GLQRALEI), A01 (WQGGRRKF), H02 (RAKRSVHF), A10 (SAARPAPP), M16 (RSRREADL), A05 (SYRKVLGQ), M18 (VHRDMAAR), C23 (RDAQAHPG), M09 (GSQHIRAE), E19 (RLGREGVQ), D06 (ALAEAMKK).
Native rCRISPA (rCRISP1) protein, purified with DANA present (see Example 4), was screened for the ability to cleave 360 unique peptides using the commercially available peptide substrate set (catalog # PrSS-360-75, JPT Peptide Technologies, Springfield, Va.). […] The substrate peptides cleaved by rCRISPA in this assay are represented by blue and green traces noted in FIG. 13. Peptides that were not cleaved by rCRISPA are also noted in FIG. 13.

RARRELAP [N05, substrate peptide of the commercial peptide substrate set PrSS-360-75, JPT Peptide Technologies]
cleavage of substrate peptide by rCRISPA (rCRISP1) protease activity: Cleaved
